Patent publication US20090280138A1 (OXFORD BIOMEDICA UK, published 2009)

Legend:
[1] = target: T1, MHC class I molecule HLA-B*0702 (iTopia plate-bound monomer) (biotin (bound to streptavidin-coated plate)); test: iTopia off-rate assay, 37 C; fit R^2 0
T1 construct: Commercial iTopia system; also called B7
Protocol: (§1) The 9 mers were tested for Peptide Binding, Off Rate and Affinity using iTopia Epitope Discovery System in accordance with the manufacturer's instructions. Briefly, 96 well microtitre plates coated with MHC molecules representing different MHC alleles are used to identify candidate peptides. […] Determinations are performed in duplicate using an ELISA plate reader and included allele specific positive controls.
(§2) A one-phase exponential decay curve, with a plateau given equal to 0, was generated using GraphPad Prism® software, which calculated the t1/2 and goodness-of-fit, as measured by r², for each peptide.

[2] = target: T2, MHC class I molecule HLA-A*0301 (iTopia plate-bound monomer) (biotin (bound to streptavidin-coated plate)); test: iTopia off-rate assay, 37 C; fit R^2 0.96
T2 construct: also called A3
Protocol: as §1, §2

[3] = target: T3, MHC class I molecule HLA-A*0201 (iTopia plate-bound monomer) (biotin (bound to streptavidin-coated plate)); test: iTopia off-rate assay, 37 C; fit R^2 0.75
T3 construct: also called A2
Protocol: as §1, §2

[4] = target: T1, MHC class I molecule HLA-B*0702 (iTopia …); test: iTopia off-rate assay, 37 C; fit R^2 0.38
Protocol: as §1, §2

[5] = target: T3, MHC class I molecule HLA-A*0201 (iTopia …); test: iTopia off-rate assay, 37 C; fit R^2 0.11
Protocol: as §1, §2

[6] = target: T3, MHC class I molecule HLA-A*0201 (iTopia …); test: iTopia off-rate assay, 37 C; fit R^2 0.72
Protocol: as §1, §2

[7] = target: T4, MHC class I molecule HLA-A*0101 (iTopia plate-bound monomer) (biotin (bound to streptavidin-coated plate)); test: iTopia off-rate assay, 37 C; fit R^2 0.18
T4 construct: also called A1
Protocol: as §1, §2

[8] = target: T2, MHC class I molecule HLA-A*0301 (iTopia …); test: iTopia off-rate assay, 37 C; fit R^2 0.84
Protocol: as §1, §2

[9] = target: T3, MHC class I molecule HLA-A*0201 (iTopia …); test: iTopia off-rate assay, 37 C; fit R^2 0.02
Protocol: as §1, §2

[10] = target: T3, MHC class I molecule HLA-A*0201 (iTopia …); test: iTopia off-rate assay, 37 C; fit R^2 0.81
Protocol: as §1, §2

[11] = target: T1, MHC class I molecule HLA-B*0702 (iTopia …); test: iTopia off-rate assay, 37 C; fit R^2 0.81
Protocol: as §1, §2

[12] = target: T1, MHC class I molecule HLA-B*0702 (iTopia …); test: iTopia off-rate assay, 37 C; fit R^2 0.94
Summary of the method: (§3)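 Each t1/2 is derived by fitting a single-phase exponential decay, with the plateau set to zero, to peptide dissociation from plate-coated MHC. The same fit supplies r² for every peptide. Nonamers are measured in duplicate using an ELISA reader.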

[13] = target: T3, MHC class I molecule HLA-A*0201 (iTopia …); test: iTopia off-rate assay, 37 C; fit R^2 0.9
Summary of the method: as §3

[14] = target: T1, MHC class I molecule HLA-B*0702 (iTopia …); test: iTopia off-rate assay, 37 C; fit R^2 0.87
Protocol: as §1, §2

[15] = target: T3, MHC class I molecule HLA-A*0201 (iTopia …); test: iTopia off-rate assay, 37 C; fit R^2 0.58
Protocol: as §1, §2

[16] = target: T1, MHC class I molecule HLA-B*0702 (iTopia …); test: iTopia off-rate assay, 37 C; fit R^2 0.95
Summary of the method: as §3

[17] = target: T4, MHC class I molecule HLA-A*0101 (iTopia …); test: iTopia off-rate assay, 37 C; fit R^2 0.76
Protocol: as §1, §2

[18] = target: T3, MHC class I molecule HLA-A*0201 (iTopia …); test: iTopia off-rate assay, 37 C; fit R^2 0.87
Protocol: as §1, §2

[19] = target: T2, MHC class I molecule HLA-A*0301 (iTopia …); test: iTopia off-rate assay, 37 C; fit R^2 0.97
Protocol: as §1, §2

[20] = target: T3, MHC class I molecule HLA-A*0201 (iTopia …); test: iTopia off-rate assay, 37 C; fit R^2 0.77
Protocol: as §1, §2

[21] = target: T3, MHC class I molecule HLA-A*0201 (iTopia …); test: iTopia off-rate assay, 37 C; fit R^2 0.3
Protocol: as §1, §2

[22] = target: T3, MHC class I molecule HLA-A*0201 (iTopia …); test: iTopia off-rate assay, 37 C; fit R^2 0
Protocol: as §1, §2

[23] = target: T2, MHC class I molecule HLA-A*0301 (iTopia …); test: iTopia off-rate assay, 37 C; fit R^2 0.77
Protocol: as §1, §2

[24] = target: T2, MHC class I molecule HLA-A*0301 (iTopia …); test: iTopia off-rate assay, 37 C; fit R^2 0.64
Protocol: as §1, §2

[25] = target: T3, MHC class I molecule HLA-A*0201 (iTopia …); test: iTopia off-rate assay, 37 C; fit R^2 0.42
Protocol: as §1, §2

[26] = target: T1, MHC class I molecule HLA-B*0702 (iTopia …); test: iTopia off-rate assay, 37 C; fit R^2 0.82
Protocol: as §1, §2

[27] = target: T4, MHC class I molecule HLA-A*0101 (iTopia …); test: iTopia off-rate assay, 37 C; fit R^2 0.12
Protocol: as §1, §2

[28] = target: T3, MHC class I molecule HLA-A*0201 (iTopia …); test: iTopia off-rate assay, 37 C; fit R^2 0.2
Protocol: as §1, §2

[29] = target: T1, MHC class I molecule HLA-B*0702 (iTopia …); test: iTopia off-rate assay, 37 C; fit R^2 0.73
Protocol: as §1, §2

[30] = target: T2, MHC class I molecule HLA-A*0301 (iTopia …); test: iTopia off-rate assay, 37 C; fit R^2 0.99
Protocol: as §1, §2

[31] = target: T3, MHC class I molecule HLA-A*0201 (iTopia …); test: iTopia off-rate assay, 37 C; fit R^2 0.97
Protocol: as §1, §2

[32] = target: T1, MHC class I molecule HLA-B*0702 (iTopia …); test: iTopia off-rate assay, 37 C; fit R^2 0.86
Protocol: as §1, §2

[33] = target: T4, MHC class I molecule HLA-A*0101 (iTopia …); test: iTopia off-rate assay, 37 C; fit R^2 0.15
Protocol: as §1, §2

[34] = target: T1, MHC class I molecule HLA-B*0702 (iTopia …); test: iTopia off-rate assay, 37 C; fit R^2 0.76
Protocol: as §1, §2

[35] = target: T3, MHC class I molecule HLA-A*0201 (iTopia …); test: iTopia off-rate assay, 37 C; fit R^2 0.76
Protocol: as §1, §2

[36] = target: T3, MHC class I molecule HLA-A*0201 (iTopia …); test: iTopia off-rate assay, 37 C; fit R^2 0.26
Protocol: as §1, §2

[37] = target: T3, MHC class I molecule HLA-A*0201 (iTopia …); test: iTopia off-rate assay, 37 C; fit R^2 0.83
Protocol: as §1, §2

[38] = target: T2, MHC class I molecule HLA-A*0301 (iTopia …); test: iTopia off-rate assay, 37 C; fit R^2 0.87
Protocol: as §1, §2

[39] = target: T1, MHC class I molecule HLA-B*0702 (iTopia …); test: iTopia off-rate assay, 37 C; fit R^2 0.04
Protocol: as §1, §2

YVSFRNLTH (also called Peptide No 126) [5T4 9-mer peptide 126 YVSFRNLTH] gave a t½ half life [1] of 2.6 h and a t½ half life [2] of 0.9 h.

In the case of LSNNSLVSL [5T4 9-mer peptide 121 LSNNSLVSL], the t½ half life [3] is reported as 0.8 h and the t½ half life [4] is reported as 4.1 h.

Work on EVVQGKDRL [5T4 9-mer peptide 157 EVVQGKDRL] yielded a t½ half life [5] of 11 h.

LTCAYPEKM (also called Peptide No 161) [5T4 9-mer peptide 161 LTCAYPEKM] was tested, and the t½ half life [6] was 3.1 h and the t½ half life [7] was 3.7 h.

With LIGAIFLLV (also called Peptide No 183) [5T4 9-mer peptide 183 LIGAIFLLV] the t½ half life [8] was 0.5 h and the t½ half life [9] was 19.4 h.

Binder LPSLRHLDL (also called Peptide No 117) [5T4 9-mer peptide 117 LPSLRHLDL] has a t½ half life [10] of 0.7 h and a t½ half life [11] of 3 h.

For LALIGAIFL (also called Peptide No 182) [5T4 9-mer peptide 182 LALIGAIFL], the t½ half life [12] was 0.5 h and the t½ half life [13] was 3.2 h.

For LPRDVLAQL [5T4 9-mer peptide 113 LPRDVLAQL], the t½ half life [14] was 3.3 h.

LHNGTLAEL (also called Peptide No 137) [5T4 9-mer peptide 137 LHNGTLAEL] showed a t½ half life [15] of 4.2 h and a t½ half life [16] of 0.3 h.

With QTSYVFLGI (also called Peptide No 177) [5T4 9-mer peptide 177 QTSYVFLGI] the t½ half life [17] was 0.2 h and the t½ half life [18] was 0.6 h.

For VLAQLPSLR [5T4 9-mer peptide 115 VLAQLPSLR], the t½ half life [19] was 0.2 h and the t½ half life [20] was 0.6 h.

Work on EKMRNRVLL [5T4 9-mer peptide 164 EKMRNRVLL] yielded a t½ half life [21] of 7 h.

Binder LLVLYLNRK (also called Peptide No 186) [5T4 9-mer peptide 186 LLVLYLNRK] has a t½ half life [22] of 21.4 h and a t½ half life [23] of 3.2 h.

Binder GLPHIRVFL (also called Peptide No 142) [5T4 9-mer peptide 142 GLPHIRVFL] has a t½ half life [24] of 6 h, a t½ half life [25] of 12.9 h and a t½ half life [26] of 0.9 h.

Work on LTYVSFRNL [5T4 9-mer peptide 125 LTYVSFRNL] yielded a t½ half life [27] of 3.9 h, a t½ half life [28] of 8.1 h and a t½ half life [29] of 6 h. It also gave a t½ half life [30] of 0.7 h.

LASNHFLYL [5T4 9-mer peptide 109 LASNHFLYL] was tested, and the t½ half life [31] was 1.3 h, the t½ half life [32] was 0.2 h and the t½ half life [33] was 3 h. It also gave a t½ half life [2] of 3.6 h.

Binder YPEKMRNRV (also called Peptide No 163) [5T4 9-mer peptide 163 YPEKMRNRV] has a t½ half life [34] of 1.9 h.

LDLSNNSLV (also called Peptide No 120) [5T4 9-mer peptide 120 LDLSNNSLV] showed a t½ half life [35] of 3.4 h.

VFLGIVLAL (also called Peptide No 179) [5T4 9-mer peptide 179 VFLGIVLAL] showed a t½ half life [36] of 15 h.

With VLYLNRKGI [5T4 9-mer peptide 187 VLYLNRKGI] the t½ half life [37] was 0.6 h, the t½ half life [38] was 1.4 h and the t½ half life [39] was 2.9 h.
